Laboratory results published in US20260242478A1 (published 2026).

Key:
[1] = target: T1, PSMA Fab (SEQ ID NOs: 19, 20); experiment: clonal phage ELISA, biotinylated PSMA Fab on neutravidin plate, anti-M13 HRP detection;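 note: crude clonal phage supernatants added to wells pretreated with blocking buffer either with or without PSMA antigen, bound phage read after washing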
T1 construct: also called Anti-PSMA Fab; 006 PSMA Fab
Procedure: (§1) Clonal phage were harvested as crude supernatants and screened via standard ELISAs. […] Prior to the addition of clonal phage. wells were incubated with blocking buffer and PSMA antigen or blocking buffer alone. Without washing or aspirating, clonal phage supernatants were then added to the wells and incubated for a short time. Wells were then washed followed by detection of bound phage using a horse radish conjugated anti-M13 antibody.

[2] = target: T1, PSMA Fab (SEQ ID NOs: 19, 20); experiment: clonal phage ELISA on captured PSMA Fab, wells pre-incubated with PSMA antigen as competitor
Procedure: as §1

[3] = target: T2, Anti-PSMA Fab (biotinylated (site not stated)); experiment: clonal phage ELISA on biotinylated PSMA Fab captured on neutravidin plate, anti-M13 HRP detection
T2 construct: also called 006 PSMA Fab

[4] = target: T2, Anti-PSMA Fab; experiment: clonal phage ELISA on captured PSMA Fab, wells pre-incubated with PSMA antigen as competitor, anti-M13 HRP detection;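 note: crude clonal phage supernatants added, with no intervening wash, to wells preincubated with PSMA antigen in blocking buffer, incubated briefly, then washed before detecting bound phage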
Procedure: as §1

[5] = target: T3, PSMA Fab (006 PSMA Fab); experiment: clonal phage ELISA on biotinylated PSMA Fab captured on neutravidin, anti-M13 HRP detection;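 note: crude clonal phage supernatants added to wells pretreated with PSMA antigen in blocking buffer or with blocking buffer only, then briefly incubated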
T3 construct: also called Anti-PSMA Fab
Procedure: as §1

[6] = target: T3, PSMA Fab (006 PSMA Fab); experiment: clonal phage ELISA on captured PSMA Fab, wells pre-incubated with PSMA antigen as competitor
Procedure: as §1

Binder | Phage binding ELISA signal, Anti-PSMA Fab [3] | Phage binding ELISA signal, Anti-PSMA Fab with PSMA antigen [4] | Phage binding ELISA signal, Anti-PSMA Fab [5] | Phage binding ELISA signal, Anti-PSMA Fab in presence of PSMA [6] | other results
LEMACRPMWMCQGL (Tested as crude clonal phage supernatant) [Phage-3536] |  |  |  |  | Phage binding ELISA signal, Anti-PSMA Fab [1]: 1.66; Phage binding ELISA signal, Anti-PSMA Fab with PSMA antigen [2]: 0.0725
FEVACIPQWMCDGF (Tested as crude clonal phage supernatant) [Phage-3537] |  |  |  |  | Phage binding ELISA signal, Anti-PSMA Fab [1]: 1.66; Phage binding ELISA signal, Anti-PSMA Fab with PSMA antigen [2]: 0.118
IARTCVPAWMCSGF (Tested as crude clonal phage supernatant) [Phage-3538] |  |  |  |  | Phage binding ELISA signal, Anti-PSMA Fab [1]: 1.65; Phage binding ELISA signal, Anti-PSMA Fab with PSMA antigen [2]: 0.102
DVRMCVPEWMCSGF (Tested as crude clonal phage supernatant) [Phage-3539] |  |  |  |  | Phage binding ELISA signal, Anti-PSMA Fab [1]: 1.65; Phage binding ELISA signal, Anti-PSMA Fab with PSMA antigen [2]: 0.0753
VKPMCVPEWMCSGL (Tested as crude clonal phage supernatant) [Phage-3540] |  |  |  |  | Phage binding ELISA signal, Anti-PSMA Fab [1]: 1.65; Phage binding ELISA signal, Anti-PSMA Fab with PSMA antigen [2]: 0.0907
ENLICKPAWMCVGF (Tested as crude clonal phage supernatant) [Phage-3541] |  |  |  |  | Phage binding ELISA signal, Anti-PSMA Fab [1]: 1.65; Phage binding ELISA signal, Anti-PSMA Fab with PSMA antigen [2]: 0.0738
LYVKCSPEWMCIGF (Tested as crude clonal phage supernatant) [Phage-3542] |  |  |  |  | Phage binding ELISA signal, Anti-PSMA Fab [1]: 1.65; Phage binding ELISA signal, Anti-PSMA Fab with PSMA antigen [2]: 0.0709
VTPQCVPMWMCTGF (Tested as crude clonal phage supernatant) [Phage-3543] |  |  |  |  | Phage binding ELISA signal, Anti-PSMA Fab [1]: 1.65; Phage binding ELISA signal, Anti-PSMA Fab with PSMA antigen [2]: 0.105
FLQACKPPWMCTGF (Tested as crude clonal phage supernatant) [Phage-3544] |  |  |  |  | Phage binding ELISA signal, Anti-PSMA Fab [1]: 1.65; Phage binding ELISA signal, Anti-PSMA Fab with PSMA antigen [2]: 0.146
VVKACIPEWMCSGF (Tested as crude clonal phage supernatant) [Phage-3545] |  |  |  |  | Phage binding ELISA signal, Anti-PSMA Fab [1]: 1.65; Phage binding ELISA signal, Anti-PSMA Fab with PSMA antigen [2]: 0.125
DARACVPEWMCYGF (Tested as crude clonal phage supernatant) [Phage-3546] |  |  |  |  | Phage binding ELISA signal, Anti-PSMA Fab [1]: 1.65; Phage binding ELISA signal, Anti-PSMA Fab with PSMA antigen [2]: 0.0805
TERVCVPDWMCAGF (Clonal phage of the Peptide-180 library) [Phage-3547] | 1.65 | 0.0944 |  |  | 
TPPFCIPKWMCQGF (Clonal phage of the Peptide-180 library) [Phage-3548] | 1.65 | 0.117 |  |  | 
MNIMCRPVWMCTGL (Clonal phage of the Peptide-180 library) [Phage-3549] | 1.65 | 0.0993 |  |  | 
MERMCVPSWMCTGF (Clonal phage of the Peptide-180 library) [Phage-3550] | 1.64 | 0.089 |  |  | 
IEKVCVPAWMCMGF (Clonal phage of the Peptide-180 library) [Phage-3551] | 1.64 | 0.238 |  |  | 
VDRLCVPNWMCMGL (Clonal phage of the Peptide-180 library) [Phage-3552] | 1.64 | 0.072 |  |  | 
AGMMCTPPWMCFGF (Clonal phage of the Peptide-180 library) [Phage-3554] | 1.64 | 0.0664 |  |  | 
LAVRCIPEWMCYGL (Clonal phage of the Peptide-180 library) [Phage-3555] | 1.64 | 0.0644 |  |  | 

Binder | Phage binding ELISA signal, Anti-PSMA Fab [3] | Phage binding ELISA signal, Anti-PSMA Fab with PSMA antigen [4] | Phage binding ELISA signal, Anti-PSMA Fab [5] | Phage binding ELISA signal, Anti-PSMA Fab in presence of PSMA [6] | other results
QSMMCIPSWMCVGF (Clonal phage of the Peptide-180 library) [Phage-3556] | 1.64 | 0.0679 |  |  | 
VVPLCVPMWMCSPM (Clonal phage of the Peptide-180 library) [Phage-3557] | 1.64 | 0.0867 |  |  | 
VEPACVPLWMCFGL (Clonal phage of the Peptide-180 library) [Phage-3558] | 1.64 | 0.0619 |  |  | 
TYFRCEPSWMCTGL (Clonal phage of the Peptide-180 library) [Phage-3559] | 1.64 | 0.073 |  |  | 
MERWCIPVWMCQGL (Clonal phage of the Peptide-180 library) [Phage-3560] | 1.64 | 0.0734 |  |  | 
VVNFCKPQWMCSGF (Clonal phage of the Peptide-180 library) [Phage-3561] | 1.64 | 0.0682 |  |  | 
DDIRCEPIWMCTGF (Peptide-180 library clone, tested as clonal phage supernatant with the peptide fused to pIII of the bacteriophage) [Phage-3562] |  |  | 1.64 | 0.0657 | 
EHRICVPQWMCTGF (Peptide-180 library clone, tested as clonal phage supernatant with the peptide fused to pIII of the bacteriophage) [Phage-3563] |  |  | 1.64 | 0.0676 | 
SPSYCVPKWMCVGF (Peptide-180 library clone, tested as clonal phage supernatant with the peptide fused to pIII of the bacteriophage) [Phage-3564] |  |  | 1.64 | 0.0712 | 
ELLKCVPQWMCTGF (Peptide-180 library clone, tested as clonal phage supernatant with the peptide fused to pIII of the bacteriophage) [Phage-3565] |  |  | 1.63 | 0.126 | 
VSTMCVPEWMCGGF (Peptide-180 library clone, tested as clonal phage supernatant with the peptide fused to pIII of the bacteriophage) [Phage-3566] |  |  | 1.63 | 0.122 | 
DAMLCRPSWMCDGF (Peptide-180 library clone, tested as clonal phage supernatant with the peptide fused to pIII of the bacteriophage) [Phage-3567] |  |  | 1.62 | 0.0871 | 
PEAYCVPSWMCTGF (Peptide-180 library clone, tested as clonal phage supernatant with the peptide fused to pIII of the bacteriophage) [Phage-3568] |  |  | 1.62 | 0.0764 | 
VAQWCTPSWMCDGF (Peptide-180 library clone, tested as clonal phage supernatant with the peptide fused to pIII of the bacteriophage) [Phage-3569] |  |  | 1.62 | 0.0794 | 
VDKACTPAWMCTGF (Peptide-180 library clone, tested as clonal phage supernatant with the peptide fused to pIII of the bacteriophage) [Phage-3570] |  |  | 1.62 | 0.0716 | 
EMPLCIPQWMCGGF (Peptide-180 library clone, tested as clonal phage supernatant with the peptide fused to pIII of the bacteriophage) [Phage-3571] |  |  | 1.62 | 0.0691 | 
VPTLCKPSWMCYGF (Peptide-180 library clone, tested as clonal phage supernatant with the peptide fused to pIII of the bacteriophage) [Phage-3572] |  |  | 1.62 | 0.0941 | 
AWMRCEPAWMCVGF (Peptide-180 library clone, tested as clonal phage supernatant with the peptide fused to pIII of the bacteriophage) [Phage-3573] |  |  | 1.62 | 0.0695 | 
